We go through 3 molecules from US6132729 (Board of Regents, The University of Texas System, dated 2000).

Several values for one entry are separate records, joined by “and”; a condition that tells them apart may be missing. Identical values can stand only once. Like-named read-outs stand apart in the source and are kept apart here.

For experiment [1], the target named is H6-N'-cys-tTF219 dimer (human).
The target of experiment [2] is tTF219 (truncated Tissue Factor, extracellular domain of mature human Tissue Factor) (human).
The target in experiment [3] is H6-tTF221-cys-C' dimer (human).
The target of experiment [4] is tTF219 (truncated Tissue Factor, extracellular domain of mature human Tissue Factor) (human). This is another data set of the same source.
In experiment [5] the target is H6-N'-cys-tTF219 (human).
Experiment [6] concerns the target tTF219 (truncated Tissue Factor, extracellular domain of mature human Tissue Factor) (human). The source holds these as a separate data set.
Experiment [7] has as its target H6-N'-cys-tTF219 (human). The source holds these as a separate data set.
The target of experiment [8] is tTF219 (truncated Tissue Factor, extracellular domain of mature human Tissue Factor) (human). This is another data set of the same source.
The target of experiment [9] is IgG-H6-N'-cys-tTF219 (human).
In experiment [10] the target is tTF219 (truncated Tissue Factor, extracellular domain of mature human Tissue Factor) (human). This is another data set of the same source.
The target in experiment [11] is T1, Factor VIIa (recombinant human) (human).
T1 chain 1: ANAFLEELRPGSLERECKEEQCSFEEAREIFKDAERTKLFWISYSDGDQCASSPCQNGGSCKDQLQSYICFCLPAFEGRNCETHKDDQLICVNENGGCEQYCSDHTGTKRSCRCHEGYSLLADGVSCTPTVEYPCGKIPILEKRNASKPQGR
T1 chain 2: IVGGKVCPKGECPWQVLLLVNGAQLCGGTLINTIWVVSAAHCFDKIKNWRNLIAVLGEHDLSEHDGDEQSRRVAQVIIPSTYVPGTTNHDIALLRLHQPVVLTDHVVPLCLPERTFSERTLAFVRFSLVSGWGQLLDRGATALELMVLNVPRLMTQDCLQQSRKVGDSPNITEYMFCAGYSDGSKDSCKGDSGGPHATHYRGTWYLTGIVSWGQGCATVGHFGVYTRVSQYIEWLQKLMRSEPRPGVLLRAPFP
Briefly: cell-based or functional assay.

B21-2/10H10 bispecific antibody: the tTF concentration at which plasma coagulated in 50 seconds in experiment [1] is 100 pM and 200 pM; in [2] it was 100 pM and 200 pM; in experiment [3] it was 4 nM; in the experiment with H6-tTF219-cys-C' (human), 3 nM; with H6-N'-cys-tTF219 (human) [5] it was 3 nM; in [6], 3 nM. For the same molecule, the tTF concentration at which plasma coagulated in 50 seconds with H6-N'-cys-tTF219 (human) [7] turned out to be 1 nM; in experiment [8] it was 1 nM; in experiment [9] it was 5 nM; in the experiment with H6-tTF221-cys-C' (human), 500 pM; in experiment [10], 500 pM; in the experiment with tTF220-cys-C' (human) it was 500 pM. Also, the tTF concentration at which plasma coagulated in 50 seconds with tTF221-cys-C' (human) and with H6-tTF220-cys-C' (human) was 500 pM throughout. The molecule also had a clotting time of mouse plasma on A20 cells in [4] of 36 s. Moreover, the coagulation inducing activity against the unconjugated form in experiment [9] amounted to 5 fold reduced.
Molecule IgG-H6-N'-cys-tTF219 displayed a conversion of Factor X to Xa (chromogenic substrate S-2765, OD 409 nm) (fold less active) with Factor VII in Proplex T of 2.

B1: tTF219 (truncated Tissue Factor, extracellular domain of mature human Tissue Factor) (receptor)
chain: GSGTTNTVAAYNLTWKSTNFKTILEWEPKPVNQVYTVQISTKSGDWKSKCFYTTDTECDLTDEIVKDVKQTYLARVFSYPAGNVESTGSAGEPLYENSPEFTPYLETNLGQPTIQSFEQVGTKVNVTVEDERTLVRRNNTFLSLRDVFGKDLIYTLYYWKSSSSGKKTAKTNTNEFLIDVDKGENYCFSVQAVIPSRTVNRKSTDSPVECMGQEKGEFRE
In the case of B1, the “coagulation-inducing potency of cell-associated tTF219 with added Factor VIIa” value in experiment [11] was approximately 100 fold.
